Values quoted from earlier work in publication PMC3910004.

Target: T1, human interleukin-6 receptor (hIL-6R) (Homo sapiens) (UniProt P08887)
T1 sequence: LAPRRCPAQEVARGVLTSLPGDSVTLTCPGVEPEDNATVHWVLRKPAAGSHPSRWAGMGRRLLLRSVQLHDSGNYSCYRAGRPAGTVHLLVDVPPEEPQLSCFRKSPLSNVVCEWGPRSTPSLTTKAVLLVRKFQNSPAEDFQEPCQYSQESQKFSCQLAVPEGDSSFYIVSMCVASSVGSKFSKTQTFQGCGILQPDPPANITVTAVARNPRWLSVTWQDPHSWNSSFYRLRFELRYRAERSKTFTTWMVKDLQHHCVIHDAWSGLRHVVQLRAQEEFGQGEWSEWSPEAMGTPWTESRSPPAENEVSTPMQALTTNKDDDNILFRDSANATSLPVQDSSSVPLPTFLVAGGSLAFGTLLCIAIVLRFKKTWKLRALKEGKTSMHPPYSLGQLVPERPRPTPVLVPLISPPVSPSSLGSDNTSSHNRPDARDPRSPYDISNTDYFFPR
Conditions: Cell binding by flow cytometry, 50 nM conjugate, 45 min, serum-free medium, 37 °C (stated for the uptake in cytotoxicity assays); binding buffer details not in …

GGGGAGGCUGUGGUGAGGG [AIR-3A]
Kd: 8.5 nM
